Results published in patent US20010023068.

System: G-protein beta/gamma subunits (Gβγ)

Row | Substance | fold stimulation of 32P incorporation into PIP3 in the presence of Gβγ over that in its absence | pmol incorporation of 32P into PIP3, Plus Gβγ [pmol] | fold stimulation of 32P incorporation into PIP3 in the presence of Gβγ over basal activity
1 | p110g/SVP4b heterodimer (GFP-fusion tagged p110gamma co-expressed with SVP4b in SF21 cells) | a 9.4 fold stimulation of ^32P incorporation into PIP3 over that seen in the absence of Gβγ was seen with the p110g/SVP4b heterodimer | 10.3 | 
2 | p110g/p101 heterodimer (GFP-fusion tagged p110gamma co-expressed with full length p101 in SF21 cells) |  | 13.5 | the p101/p101 heterodimer produced a 4.6 fold stimulation over basal activity in the presence of Gβγ
